The values that follow come from PMC7095019 (Nature, 2012).

First the molecules themselves.
B1: CR6261 germline variant sCDR H2/sCDR H3, soluble IgG (antibody, V domains shown)
VH: QVQLVQSGAEVKKPGSSVKVSCKASGGTFSSYAISWVRQAPGQGLEWMGGIIPIFGTTKYAPKFQGRVTITADESTSTAYMELSSLRSEDTAVYYCAKHMGYQVRETMDVWGKGTTVTVSS
VL: QSVLTQPPSVSAAPGQKVTISCSGSSSNIGNNYVSWYQQLPGTAPKLLIYDNNKRPSGIPDRFSGSKSGTSATLGITGLQTGDEADYYCGTWDSSLSAYVVFGGGTKLTVL
B2: CR6261 germline variant sCDR H1/sCDR H2/sFR3, soluble IgG (antibody, V domains shown)
VH: QVQLVQSGAEVKKPGSSVKVSCKASGGPFRSYAISWVRQAPGQGLEWMGGIIPIFGTTKYAPKFQGRVTITADDFAGTVYMELSSLRSEDTAVYYCAKHMGYQLRETMDVWGKGTTVTVSS
VL: QSVLTQPPSVSAAPGQKVTISCSGSSSNIGNNYVSWYQQLPGTAPKLLIYDNNKRPSGIPDRFSGSKSGTSATLGITGLQTGDEADYYCGTWDSSLSAYVVFGGGTKLTVL
B3: CR6261 germline variant sCDR H3, soluble IgG (antibody, V domains shown)
VH: QVQLVQSGAEVKKPGSSVKVSCKASGGTFSSYAISWVRQAPGQGLEWMGGIIPIFGTANYAQKFQGRVTITADESTSTAYMELSSLRSEDTAVYYCAKHMGYQVRETMDVWGKGTTVTVSS
VL: QSVLTQPPSVSAAPGQKVTISCSGSSSNIGNNYVSWYQQLPGTAPKLLIYDNNKRPSGIPDRFSGSKSGTSATLGITGLQTGDEADYYCGTWDSSLSAYVVFGGGTKLTVL
B4: CR6261 germline variant sCDR H1, soluble IgG (antibody, V domains shown)
VH: QVQLVQSGAEVKKPGSSVKVSCKASGGPFRSYAISWVRQAPGQGLEWMGGIIPIFGTANYAQKFQGRVTITADESTSTAYMELSSLRSEDTAVYYCAKHMGYQLRETMDVWGKGTTVTVSS
VL: QSVLTQPPSVSAAPGQKVTISCSGSSSNIGNNYVSWYQQLPGTAPKLLIYDNNKRPSGIPDRFSGSKSGTSATLGITGLQTGDEADYYCGTWDSSLSAYVVFGGGTKLTVL
B5: CR6261 germline variant sCDR H2, soluble IgG (antibody, V domains shown)
VH: QVQLVQSGAEVKKPGSSVKVSCKASGGTFSSYAISWVRQAPGQGLEWMGGIIPIFGTTKYAPKFQGRVTITADESTSTAYMELSSLRSEDTAVYYCAKHMGYQLRETMDVWGKGTTVTVSS
VL: QSVLTQPPSVSAAPGQKVTISCSGSSSNIGNNYVSWYQQLPGTAPKLLIYDNNKRPSGIPDRFSGSKSGTSATLGITGLQTGDEADYYCGTWDSSLSAYVVFGGGTKLTVL
B6: CR6261 germline variant sCDR H1/sCDR H2, soluble IgG (antibody, V domains shown)
VH: QVQLVQSGAEVKKPGSSVKVSCKASGGPFRSYAISWVRQAPGQGLEWMGGIIPIFGTTKYAPKFQGRVTITADESTSTAYMELSSLRSEDTAVYYCAKHMGYQLRETMDVWGKGTTVTVSS
VL: QSVLTQPPSVSAAPGQKVTISCSGSSSNIGNNYVSWYQQLPGTAPKLLIYDNNKRPSGIPDRFSGSKSGTSATLGITGLQTGDEADYYCGTWDSSLSAYVVFGGGTKLTVL
B7: CR6261 germline variant sFR3/sCDR H3, soluble IgG (antibody, V domains shown)
VH: QVQLVQSGAEVKKPGSSVKVSCKASGGTFSSYAISWVRQAPGQGLEWMGGIIPIFGTANYAQKFQGRVTITADDFAGTVYMELSSLRSEDTAVYYCAKHMGYQVRETMDVWGKGTTVTVSS
VL: QSVLTQPPSVSAAPGQKVTISCSGSSSNIGNNYVSWYQQLPGTAPKLLIYDNNKRPSGIPDRFSGSKSGTSATLGITGLQTGDEADYYCGTWDSSLSAYVVFGGGTKLTVL
B8: CR6261 germline variant sCDR H1/sFR3, soluble IgG (antibody, V domains shown)
VH: QVQLVQSGAEVKKPGSSVKVSCKASGGPFRSYAISWVRQAPGQGLEWMGGIIPIFGTANYAQKFQGRVTITADDFAGTVYMELSSLRSEDTAVYYCAKHMGYQLRETMDVWGKGTTVTVSS
VL: QSVLTQPPSVSAAPGQKVTISCSGSSSNIGNNYVSWYQQLPGTAPKLLIYDNNKRPSGIPDRFSGSKSGTSATLGITGLQTGDEADYYCGTWDSSLSAYVVFGGGTKLTVL

Some results are limits rather than exact numbers.

This assay deals with H1 A/New Caledonia/20/1999 haemagglutinin, wild-type trimeric protein (Influenza A virus A/New …, UniProt Q6WG00, strain). In words: ELISA.
On to B1, for which the “ELISA endpoint dilution titre” value worked out at 0.15 µg/mL.
The same measure, in the same setting: the result for B2 reads 0.00133 µg/mL.
B3: the “ELISA endpoint dilution titre” value is greater than 100 µg/mL and the binding result is given as “no binding (tested: >100 µg ml^-1)”.
Take B4: the “ELISA endpoint dilution titre” value came out at 0.15 µg/mL.
As for B5, the “ELISA endpoint dilution titre” value is greater than 100 µg/mL and the binding result was “no binding (tested: >100 µg ml^-1)”.
On to B6, for which the “ELISA endpoint dilution titre” value amounted to 0.15 µg/mL.
Turning to B7, the “ELISA endpoint dilution titre” value is greater than 100 µg/mL and the binding result is on record as “no binding (tested: >100 µg ml^-1)”.
As to B8, the “ELISA endpoint dilution titre” value was 0.00133 µg/mL.
